The series “SEC” deals with the molecule itself. In words: SEC. On the technique in general: In gel filtration, larger molecules generally elute earlier.
The series “negative stain EM” concerns the molecule itself. In words: negative stain EM.

B1: PRPS1-D52H (enzyme, human)
chain: MPNIKIFSGSSHQDLSQKIADRLGLELGKVVTKKFSNQETCVEIGESVRGEHVYIVQSGCGEINDNLMELLIMINACKIASASRVTAVIPCFPYARQDKKDKSRAPISAKLVANMLSVAGADHIITMDLHASQIQGFFDIPVDNLYAEPAVLKWIRENISEWRNCTIVSPDAGGAKRVTSIADRLNVDFALIHKERKKANEVDRMVLVGDVKDRVAILVDDMADTCGTICHAADKLLSAGATRVYAILTHGIFSGPAISRINNACFEAVVVTNTIPQEDKMKHCSKIQVIDISMILAEAIRRTHNGESVSYLFSHVPL
Regarding B1, in the series “SEC”, the binding result was “binds”.

B2: PRPS1-S16P (enzyme, human)
chain: MPNIKIFSGSSHQDLPQKIADRLGLELGKVVTKKFSNQETCVEIGESVRGEDVYIVQSGCGEINDNLMELLIMINACKIASASRVTAVIPCFPYARQDKKDKSRAPISAKLVANMLSVAGADHIITMDLHASQIQGFFDIPVDNLYAEPAVLKWIRENISEWRNCTIVSPDAGGAKRVTSIADRLNVDFALIHKERKKANEVDRMVLVGDVKDRVAILVDDMADTCGTICHAADKLLSAGATRVYAILTHGIFSGPAISRINNACFEAVVVTNTIPQEDKMKHCSKIQVIDISMILAEAIRRTHNGESVSYLFSHVPL
Turning to B2, the binding result in the series “negative stain EM” is “binds”.

B3: PRPS1-V309F (enzyme, human)
chain: MPNIKIFSGSSHQDLSQKIADRLGLELGKVVTKKFSNQETCVEIGESVRGEDVYIVQSGCGEINDNLMELLIMINACKIASASRVTAVIPCFPYARQDKKDKSRAPISAKLVANMLSVAGADHIITMDLHASQIQGFFDIPVDNLYAEPAVLKWIRENISEWRNCTIVSPDAGGAKRVTSIADRLNVDFALIHKERKKANEVDRMVLVGDVKDRVAILVDDMADTCGTICHAADKLLSAGATRVYAILTHGIFSGPAISRINNACFEAVVVTNTIPQEDKMKHCSKIQVIDISMILAEAIRRTHNGESFSYLFSHVPL
Take B3: the binding result in “negative stain EM” was “binds”.

B4: PRPS1-I290T (enzyme, human)
chain: MPNIKIFSGSSHQDLSQKIADRLGLELGKVVTKKFSNQETCVEIGESVRGEDVYIVQSGCGEINDNLMELLIMINACKIASASRVTAVIPCFPYARQDKKDKSRAPISAKLVANMLSVAGADHIITMDLHASQIQGFFDIPVDNLYAEPAVLKWIRENISEWRNCTIVSPDAGGAKRVTSIADRLNVDFALIHKERKKANEVDRMVLVGDVKDRVAILVDDMADTCGTICHAADKLLSAGATRVYAILTHGIFSGPAISRINNACFEAVVVTNTIPQEDKMKHCSKIQVTDISMILAEAIRRTHNGESVSYLFSHVPL
On to B4, for which the binding result in “negative stain EM” is “binds”.

Values taken from article PMC10033377 (Nature structural & molecular biology, 2023).
